Assay results published in patent US8173771B2, “Humanin receptor or humanin-like polypeptide receptor” (Keio Univeristy, priority 2005, dated 2012).

Assays:
Experiment in all cases: In vitro pull-down assay with HN- or HNA-conjugated Sepharose 4B
Format in all cases: binding
[1] = biological target: T1, IL-6 receptor (Rattus norvegicus, UniProt P22273); conditions: lysates of F11 cells overexpressing IL-6R
T1 construct: V6 (so in the source); probably V5); host or cells: F11 cells (lysate)
T1 sequence (P22273 20-462): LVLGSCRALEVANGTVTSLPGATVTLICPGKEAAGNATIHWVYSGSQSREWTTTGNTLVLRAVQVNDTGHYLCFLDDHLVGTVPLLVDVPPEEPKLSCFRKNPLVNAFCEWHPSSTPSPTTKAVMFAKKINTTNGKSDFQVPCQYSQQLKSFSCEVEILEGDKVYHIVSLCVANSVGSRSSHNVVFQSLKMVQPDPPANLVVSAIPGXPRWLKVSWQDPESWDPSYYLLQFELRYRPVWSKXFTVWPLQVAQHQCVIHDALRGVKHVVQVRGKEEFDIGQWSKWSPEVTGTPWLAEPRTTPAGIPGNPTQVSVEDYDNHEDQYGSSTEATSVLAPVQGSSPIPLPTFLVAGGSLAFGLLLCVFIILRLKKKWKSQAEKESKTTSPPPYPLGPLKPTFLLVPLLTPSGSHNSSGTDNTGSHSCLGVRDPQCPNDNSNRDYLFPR
Excerpt: (§1) C) The photos show the results of in vitro pull down assay using HN- or HNA-conjugated Sepharose 4B bead. WSX-1, CNTF-R, and […] were over-expressed in F11 cells and the pull down assay was made using the above 4B bead. Immunoblot analysis was done using PO4 antibody against Humanin (lower panes). HN or HNA comprised in the above Sepharose 4B bead was compared with synthesized HN peptide (50 pmol) as a positive control.
(§2) F11 cells (7×10^4/well in 6-well plates) were transfected with the plasmids encoding mycHis-WSX-1, V5-CNTF-R or rat IL-6R (V6 tagged). At 48 hrs after transfection, the cells were harvested for pull-down assays with HN or HNA-conjugated Sepharose 4B. For conjugation of […] or HNA with Sepharose 4B, 3 ml of CNBr-activated Sepharose 4B was incubated with 0.5 mg of HN or HNA in a coupling buffer (0.1M NaHCO3 0.5M NaCl, pH8.3) overnight at 4° C. The beads were then reacted with a blocking buffer (0.2M glycine, pH 8.0) for 2 hrs at a room temperature, washed with the coupling buffer and stored at 4° C. for use in pull-down assay. For each pull-down assay, 20 μl of 1:1 slurry of Sepharose was used for 100 μl of the cell lysate.

[2] = biological target: T2, WSX-1 (Homo sapiens, UniProt Q6UWB1); conditions: lysates of F11 cells overexpressing WSX-1
T2 construct: His; expressed in transfected cells; host or cells: F11 cells (lysate)
T2 sequence (Q6UWB1 33-636): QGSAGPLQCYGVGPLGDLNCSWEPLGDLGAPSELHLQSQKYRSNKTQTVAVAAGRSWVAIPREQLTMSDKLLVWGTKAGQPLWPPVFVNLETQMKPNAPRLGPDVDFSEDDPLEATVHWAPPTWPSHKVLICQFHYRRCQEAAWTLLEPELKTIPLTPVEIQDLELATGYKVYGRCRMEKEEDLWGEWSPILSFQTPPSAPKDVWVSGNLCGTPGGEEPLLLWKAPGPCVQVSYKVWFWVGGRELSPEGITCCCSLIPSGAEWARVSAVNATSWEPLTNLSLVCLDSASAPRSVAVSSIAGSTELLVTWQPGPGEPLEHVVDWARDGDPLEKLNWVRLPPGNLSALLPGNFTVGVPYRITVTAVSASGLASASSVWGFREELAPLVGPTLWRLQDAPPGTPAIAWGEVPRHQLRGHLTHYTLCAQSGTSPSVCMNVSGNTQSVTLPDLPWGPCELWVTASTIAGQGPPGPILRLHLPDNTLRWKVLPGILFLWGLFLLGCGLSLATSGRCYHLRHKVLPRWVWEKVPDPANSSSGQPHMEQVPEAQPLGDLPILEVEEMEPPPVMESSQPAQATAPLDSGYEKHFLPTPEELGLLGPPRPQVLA
Excerpt: as §1, §2

[3] = biological target: T3, CNTF receptor (Homo sapiens, UniProt P26992); conditions: lysates of F11 cells overexpressing CNTF-R
T3 construct: V5 (C); host or cells: F11 cells (lysate)
T3 sequence (P26992 23-342): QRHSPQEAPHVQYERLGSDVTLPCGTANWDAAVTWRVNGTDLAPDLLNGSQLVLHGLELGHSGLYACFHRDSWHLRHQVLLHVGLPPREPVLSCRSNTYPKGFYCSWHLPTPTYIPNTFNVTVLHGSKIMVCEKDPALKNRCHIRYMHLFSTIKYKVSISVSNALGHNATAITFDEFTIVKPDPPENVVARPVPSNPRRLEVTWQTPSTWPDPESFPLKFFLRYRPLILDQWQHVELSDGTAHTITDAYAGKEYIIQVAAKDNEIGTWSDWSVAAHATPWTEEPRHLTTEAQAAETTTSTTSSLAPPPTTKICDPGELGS
Excerpt: as §1, §2

C8A-Humanin (MAPRGFSALLLLTSEIDLPVKRRA) [HNA]
did not bind: binding in pull-down to IL-6 receptor [1] | binding in pull-down to WSX-1 [2] | binding in pull-down to CNTF receptor [3]
